Results published in patent US7202329 (MYRIAD GENETICS, dated 2007).

B2: Tsg101 (aa 147-391) (other, human, UniProt Q99816 147-390, looked up)
chain: SASYPPYQATGPPNTSYMPGMPGGISPYPSGYPPNPSGYPGCPYPPGGPYPATTSSQYPSQPPVTTVGPSRDGTISEDTIRASLISAVSDKLRWRMKEEMDRAQAELNALKRTEEDLKKGHQKLEEMVTRLDQEVAEVDKNIELLKKKDEELSSALEKMENQSENNDIDEVIIPTAPLYKQILNLYAEENAIEDTIFYLGEALRRGVIDLDVFLKHVRLLSRKQFQLRALMQKARKTAGLSDLY
notes: range 147-391
B4: VPS28 protein (aa 10-221) (other, human, UniProt Q9UK41 10-221, looked up)
chain: GIGAPGNKPELYEEVKLYKNAREREKYDNMAELFAVVKTMQALEKAYIKDCVSPSEYTAACSRLLVQYKAAFRQVQGSEISSIDEFCRKFRLDCPLAMERIKEDRPITIKDDKGNLNRCIADVVSLFITVMDKLRLEIRAMDEIQPDLRELMETMHRMSHLPPDFEGRQTVSQWLQTLSGMSASDELDDSQVRQMLFDLESAYNAFNRFLHA

Assays:
Test in all cases: yeast two-hybrid
[1] = biological target: T1, Cytoplasmic linker 2 (CYLN2) (aa 607-947) (UniProt Q9UDT6 607-947)
T1 construct: also called CLIP-115
T1 sequence (looked up): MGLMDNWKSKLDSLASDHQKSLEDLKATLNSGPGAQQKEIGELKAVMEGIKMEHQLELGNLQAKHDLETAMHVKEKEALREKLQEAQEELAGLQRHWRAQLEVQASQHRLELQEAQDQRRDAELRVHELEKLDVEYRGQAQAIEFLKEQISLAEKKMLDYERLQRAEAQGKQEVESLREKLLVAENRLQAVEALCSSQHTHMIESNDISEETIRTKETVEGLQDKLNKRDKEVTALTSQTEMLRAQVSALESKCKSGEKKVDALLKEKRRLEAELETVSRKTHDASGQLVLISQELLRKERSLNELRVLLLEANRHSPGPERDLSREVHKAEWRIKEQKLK

[2] = biological target: T2, Golgi autoantigen (Golgin-84) (aa 198-501) (UniProt Q8TBA6 198-501)
T2 construct: range 198-501
T2 sequence (looked up): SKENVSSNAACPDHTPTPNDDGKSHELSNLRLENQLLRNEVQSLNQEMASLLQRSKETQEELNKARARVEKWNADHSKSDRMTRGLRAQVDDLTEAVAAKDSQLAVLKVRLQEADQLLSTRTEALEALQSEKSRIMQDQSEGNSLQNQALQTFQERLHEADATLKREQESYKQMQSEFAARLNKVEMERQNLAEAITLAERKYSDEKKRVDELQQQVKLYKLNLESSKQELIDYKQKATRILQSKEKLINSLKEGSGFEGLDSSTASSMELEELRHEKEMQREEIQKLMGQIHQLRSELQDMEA

[3] = biological target: B4
VPS28 protein (aa 9-211) = biological target: T3, VPS28 protein (aa 9-211) (human, UniProt Q9UK41 9-211)
T3 construct: range 9-211
T3 sequence (looked up): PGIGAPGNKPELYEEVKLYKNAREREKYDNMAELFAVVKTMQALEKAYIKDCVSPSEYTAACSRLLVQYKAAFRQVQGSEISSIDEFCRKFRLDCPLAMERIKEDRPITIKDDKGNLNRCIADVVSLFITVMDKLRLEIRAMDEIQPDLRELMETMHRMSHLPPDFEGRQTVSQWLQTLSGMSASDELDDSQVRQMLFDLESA

[4] = biological target: T4, hypothetical protein FLJ10540 (aa 1-140) (UniProt Q53EZ4 1-140)
T4 construct: range 1-140
T4 sequence (looked up): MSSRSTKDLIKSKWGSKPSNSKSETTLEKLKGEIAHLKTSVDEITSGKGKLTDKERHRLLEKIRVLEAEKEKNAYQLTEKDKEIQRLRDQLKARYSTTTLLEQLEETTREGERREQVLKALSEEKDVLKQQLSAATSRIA

Tsg101 (aa 147-391) = biological target: B2
[5] = biological target: T5, Death associated protein 5 (DAP5) (aa 16-157) (UniProt P78344 16-157)
T5 construct: range 16-157
T5 sequence (looked up): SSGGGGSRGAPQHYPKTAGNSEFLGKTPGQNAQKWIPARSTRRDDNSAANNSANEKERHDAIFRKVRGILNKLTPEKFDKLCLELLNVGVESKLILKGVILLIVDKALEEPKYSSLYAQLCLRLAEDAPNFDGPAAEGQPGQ

[6] = biological target: T6, Chromosome-associated polypeptide HCAP (aa 119-353) (human, UniProt Q9UQE7 119-353)
T6 construct: range 119-353

[7] = biological target: T7, Protein kinase C and casein kinase substrate (PACSIN2) (aa 174-367) (UniProt Q9UNF0 174-367)
T7 construct: range 174-367
T7 sequence (looked up): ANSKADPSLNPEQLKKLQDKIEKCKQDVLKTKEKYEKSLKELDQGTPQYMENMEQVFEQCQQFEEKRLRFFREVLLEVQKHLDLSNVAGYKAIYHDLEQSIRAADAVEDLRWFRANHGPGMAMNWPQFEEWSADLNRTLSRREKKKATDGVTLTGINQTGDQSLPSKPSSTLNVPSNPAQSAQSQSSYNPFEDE

T6 sequence (Q9UQE7 119-353 limits assumed): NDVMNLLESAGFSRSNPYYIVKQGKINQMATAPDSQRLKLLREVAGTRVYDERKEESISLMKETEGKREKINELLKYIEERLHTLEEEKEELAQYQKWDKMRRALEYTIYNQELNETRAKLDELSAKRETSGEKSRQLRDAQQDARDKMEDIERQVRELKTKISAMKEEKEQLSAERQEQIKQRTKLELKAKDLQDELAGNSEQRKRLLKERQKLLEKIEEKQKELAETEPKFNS

B1: Tsg101 (aa 231-391) (other, human, UniProt Q99816 231-390, looked up)
chain: ISAVSDKLRWRMKEEMDRAQAELNALKRTEEDLKKGHQKLEEMVTRLDQEVAEVDKNIELLKKKDEELSSALEKMENQSENNDIDEVIIPTAPLYKQILNLYAEENAIEDTIFYLGEALRRGVIDLDVFLKHVRLLSRKQFQLRALMQKARKTAGLSDLY
[1]
  binding result: binds
[2]
  binding result: binds
[3]
  binding result: binds
VPS28 protein (aa 9-211)
  binding result: binds

## B2
[2]
  binding result: binds

B3: Tsg101 (aa 140-270) (other, human, UniProt Q99816 140-270, looked up)
chain: PVFSRPISASYPPYQATGPPNTSYMPGMPGGISPYPSGYPPNPSGYPGCPYPPGGPYPATTSSQYPSQPPVTTVGPSRDGTISEDTIRASLISAVSDKLRWRMKEEMDRAQAELNALKRTEEDLKKGHQKL
notes: range 140-270
[4]
  binding result: binds

## B4
Tsg101 (aa 147-391)
  binding result: binds

B5: VPS28 protein (aa 27-221) (other, human, UniProt Q9UK41 27-221, looked up)
chain: YKNAREREKYDNMAELFAVVKTMQALEKAYIKDCVSPSEYTAACSRLLVQYKAAFRQVQGSEISSIDEFCRKFRLDCPLAMERIKEDRPITIKDDKGNLNRCIADVVSLFITVMDKLRLEIRAMDEIQPDLRELMETMHRMSHLPPDFEGRQTVSQWLQTLSGMSASDELDDSQVRQMLFDLESAYNAFNRFLHA
Tsg101 (aa 147-391)
  binding result: binds

B6: Tsg101 (aa 317-391) (other, human, UniProt Q99816 317-390, looked up)
chain: VIIPTAPLYKQILNLYAEENAIEDTIFYLGEALRRGVIDLDVFLKHVRLLSRKQFQLRALMQKARKTAGLSDLY
notes: range 317-391
[3]
  binding result: binds

B7: Tsg101 (aa 265-391) (other, human, UniProt Q99816 265-390, looked up)
chain: KGHQKLEEMVTRLDQEVAEVDKNIELLKKKDEELSSALEKMENQSENNDIDEVIIPTAPLYKQILNLYAEENAIEDTIFYLGEALRRGVIDLDVFLKHVRLLSRKQFQLRALMQKARKTAGLSDLY
notes: range 265-391
[5]
  binding result: binds
[6]
  binding result: binds
[7]
  binding result: binds
[3]
  binding result: binds
